Test results: US20030078373A1 (published 2003)

Columns and labels:
[1] = target: T1, barnase (UniProt P00648 48-157); assay: derived from the change from EX2 to EX1 amide proton exchange of barnase (NMR)
[2] = target: T2, rhodanese (UniProt P00586 2-297); assay: estimated from the molar ratio giving maximal refolding yield of rhodanese
T2 construct: also called unfolded rhodanese
T2 sequence: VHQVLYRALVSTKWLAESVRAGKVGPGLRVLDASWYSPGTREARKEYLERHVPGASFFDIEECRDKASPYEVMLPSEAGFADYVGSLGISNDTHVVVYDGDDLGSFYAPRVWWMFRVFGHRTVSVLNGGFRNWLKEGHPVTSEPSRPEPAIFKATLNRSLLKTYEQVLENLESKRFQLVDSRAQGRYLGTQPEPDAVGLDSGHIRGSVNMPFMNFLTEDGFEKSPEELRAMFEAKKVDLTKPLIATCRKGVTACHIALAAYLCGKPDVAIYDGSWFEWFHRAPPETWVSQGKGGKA

[3] = target: T1, barnase; assay: derived from amide proton exchange of barnase (NMR); reference value for intact GroEL from the literature
[4] = target: T2, rhodanese; assay: cell-based or functional assay
[5] = target: cyclophilin A (UniProt P62937 1-165); assay: cell-based or functional assay

T1 sequence (P00648 48-157): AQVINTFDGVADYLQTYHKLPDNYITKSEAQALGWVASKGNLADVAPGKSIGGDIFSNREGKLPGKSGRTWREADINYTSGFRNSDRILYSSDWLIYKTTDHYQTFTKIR

| Binder | koff [1] [s⁻¹] | Kd [2] [nM] | fold of the dissociation rate constant over that from intact GroEL [3] [fold] | rhodanese refolding activity after 25 mins [4] [%] | refolding of inactivated cyclophilin A [5] [%] | rhodanese refolding activity [4] [%] | rhodanese refolding activity above background refolding [4] [%] | rhodanese refolding activity at about 25 mins [4] [%] |
| --- | --- | --- | --- | --- | --- | --- | --- | --- |
| sht-GroEL 191-376 (other) EGMQFDRGYLSPYFINKPETGAVELESPFILLADKKISNIREMLPVLEAVAKAGKPLLIIAEDVEGEALATLVVNTMRGIVKVAAVKAPGFGDRRKAMLQDIATLTGGTVISEEIGMELEKATLEDLGQAKRVVINKDTTTIIDGVGEEAAIQGRVAQIRQQIEEATSDYDREKLQERVAKLAGGV | ~2 | > 100 | < 5 | ~40 | 100 | – | – | – |
| sht-GroEL 191-345 (other) EGMQFDRGYLSPYFINKPETGAVELESPFILLADKKISNIREMLPVLEAVAKAGKPLLIIAEDVEGEALATLVVNTMRGIVKVAAVKAPGFGDRRKAMLQDIATLTGGTVISEEIGMELEKATLEDLGQAKRVVINKDTTTIIDGVGEEAAIQGR | – | – | – | – | 100 | ~42.5 | ~37.5 | ~50 |
